Source: paper PMC3961392

Target: APOBEC3G (human), Q9HC16
Experiment: SEC; 10-15 µg of purified enzyme (low enzyme concentration) on a 10 mL Superdex 200 column; 50 mM Tris pH 7.5, 200 mM NaCl; masses and oligomerization states from a Bio-Rad gel filtration standard curve
Details: remark: other sources report otherwise

- stoichiometry N: 2
B1: APOBEC3G, Q9HC16 1-384 (enzyme)
chain: MKPHFRNTVERMYRDTFSYNFYNRPILSRRNTVWLCYEVKTKGPSRPPLDAKIFRGQVYSELKYHPEMRFFHWFSKWRKLHRDQEYEVTWYISWSPCTKCTRDMATFLAEDPKVTLTIFVARLYYFWDPDYQEALRSLCQKRDGPRATMKIMNYDEFQHCWSKFVYSQRELFEPWNNLPKYYILLHIMLGEILRHSMDPPTFTFNFNNEPWVRGRHETYLCYEVERMHNDTWVLLNQRRGFLCNQAPHKHGFLEGRHAELCFLDVIPFWKLDLDQDYRVTCFTSWSPCFSCAQEMAKFISKNKHVSLCIFTARIYDDQGRCQEGLRTLAEAGAKISIMTYSEFKHCWDTFVDHQGCPFQPWDGLDEHSQDLSGRLRAILQNQEN
